Residue numbers refer to the chain shown, from its start.
T1: his-tagged recombinant huCEACAM3 (R&D Systems, #9868-CM) (human, UniProt P40198 35-155)
T1 construct: Bought reagent; also called rec. hCEACAM3; recombinant soluble human CEACAM3; not shown: His tag
T1 sequence (looked up): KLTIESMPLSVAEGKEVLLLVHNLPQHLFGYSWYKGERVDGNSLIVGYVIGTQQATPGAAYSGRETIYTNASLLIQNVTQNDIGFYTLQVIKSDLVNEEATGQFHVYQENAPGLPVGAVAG

T2: recombinant human CEACAM5 Extra Cellular Domain (ECD) soluble protein (human, UniProt P06731 35-685, biotinylated in the competition ELISA of Example 4)
T2 construct: extracellular domain; also called rec. hCEACAM5; recombinant soluble human CEACAM5; not shown: C-terminal Avitag and hexa-histidine tag, or a human Fc or a mouse Fc region; which construct stood in each assay is not
T2 sequence (looked up): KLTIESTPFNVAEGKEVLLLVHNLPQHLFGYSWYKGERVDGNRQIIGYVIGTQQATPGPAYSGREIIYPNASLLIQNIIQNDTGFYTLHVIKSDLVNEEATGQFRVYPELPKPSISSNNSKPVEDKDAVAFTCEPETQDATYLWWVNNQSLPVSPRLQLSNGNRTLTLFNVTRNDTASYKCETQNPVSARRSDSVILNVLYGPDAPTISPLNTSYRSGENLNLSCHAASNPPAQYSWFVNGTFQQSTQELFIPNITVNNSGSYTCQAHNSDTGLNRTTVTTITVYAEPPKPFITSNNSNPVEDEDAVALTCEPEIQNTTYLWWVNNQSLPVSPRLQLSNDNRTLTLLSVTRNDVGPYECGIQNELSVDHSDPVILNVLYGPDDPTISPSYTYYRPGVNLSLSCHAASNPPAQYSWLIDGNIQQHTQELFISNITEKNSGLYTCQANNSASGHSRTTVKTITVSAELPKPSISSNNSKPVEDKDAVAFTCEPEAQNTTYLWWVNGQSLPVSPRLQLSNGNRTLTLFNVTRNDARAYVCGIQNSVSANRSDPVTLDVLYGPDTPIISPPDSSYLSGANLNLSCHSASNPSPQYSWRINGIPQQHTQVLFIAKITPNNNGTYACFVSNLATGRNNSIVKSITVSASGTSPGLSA

B1: K2AC84 (bispecific antibody, human IgG1, kappa, lambda)
heavy: not shown
light 1: QSVLTQPPSVSAAPGQKVTISCSGSSSNIGIGLVSWYQQLPGTAPKLLIYNVNTRPSGIPDRFSGSKSGTSATLGITGLQTGDEADYYCGTWDFSYRVDFGGGTKLTVLGQPKAAPSVTLFPPSSEELQANKATLVCLISDFYPGAVTVAWKADSSPVKAGVETTTPSKQSNNKYAASSYLSLTPEQWKSHRSYSCQVTHEGSTVEKTVAPTECS
light 2: not shown
notes: Kappa-lambda body; also called CD47xCEACAM5 bispecific antibody K2AC84; AC84 (CEACAM5 arm)
B2: K2AC22 (bispecific antibody, human IgG1, kappa, lambda)
heavy: not shown
light 1: B1 light 1 with G30A, I31N, L33I, N51F, V52D, T54L, R97G, V98I, D99V
light 2: not shown
notes: Kappa-lambda body, human IgG1, one arm for CEACAM5 and one for CD47; comparison antibody from WO2019234576; also called state of the art bispecific CEAxCD47 antibody K2AC22; CD47xCEACAM5 bispecific antibody K2AC22
B3: K2AC100 (bispecific antibody, human IgG1, kappa, lambda)
heavy: not shown
light 1: B1 light 1 with I31Y, V52G, T54I
light 2: not shown
notes: Kappa-lambda body; also called CD47xCEACAM5 bispecific antibody K2AC100; AC100 (CEACAM5 arm)

Legend:
[1] = molecular target: T1, his-tagged recombinant huCEACAM3 (R&D …); assay: BLI (Octet), his-tagged CEACAM3 on HIS1K biosensor, antibody as analyte
Experimental: (§1) The affinity of the anti-human CEACAM5 arms of the CD47×CEACAM5 bispecific antibodies of the invention for recombinant soluble human CEACAM3 was determined using the Bio-Layer Interferometry (BLI) technology and an OctetRED96 instrument. HIS1K biosensors (Sartorius), loaded with an anti-His tag antibody, were used to capture his-tagged recombinant huCEACAM3 (R&D Systems, #9868-CM). The measurement was performed at 30° C. After hydration, pre-conditioning and a baseline step in Kinetic buffer (PBS, 0.002% Tween 20, 0.01% BSA, Kathon; Sartorius), biosensors were loaded for 5 min with the recombinant huCEACAM3 at 5 μg/mL in Kinetic buffer. Then, biosensors were dipped into a serial dilution of k bodies, starting at 667 nM with a 2× dilution factor. The association and dissociation phases were monitored for 60 seconds and 120 seconds respectively. Biosensors were regenerated using 10 mM glycine pH 1.7. A standard acquisition rate was applied (5.0 Hz, averaging by 20). Curves were processed with a double reference subtraction, a Y alignment on the baseline and an interstep correction. The affinity was measured applying a 1:1 global fitting model on the full association step and the first 5 seconds of the dissociation step.

[2] = molecular target: T2, recombinant human CEACAM5 Extra …; assay: BLI (Octet), antibody on Protein A biosensor, soluble CEACAM5 ECD as analyte
Experimental: (§2) The affinity of the anti-human CEACAM5 arm of the CD47×CEACAM5 bispecific antibodies of the invention for recombinant soluble human CEACAM5 was determined using the Bio-Layer Interferometry (BLI) technology. An OctetRED96 instrument and Protein A biosensors were used (Sartorius). The measurement was performed at 30° C. After hydration, pre-conditioning and a baseline step in Kinetic buffer (PBS, 0.002% Tween 20, 0.01% BSA, Kathon; Sartorius), biosensors were loaded for 5 min with the κλ body at 0.5 μg/mL in Kinetic buffer. Then, biosensors were dipped into a serial dilution of recombinant human CEACAM5 Extra Cellular Domain (ECD) soluble protein (produced in house), starting at 50 nM with a 2× dilution factor. The association and dissociation phases were monitored for 600 seconds each. Biosensors were regenerated using 10 mM glycine pH 1.7. A standard acquisition rate was applied (5.0 Hz, averaging by 20). Curves were processed with a reference well subtraction, a Y alignment on the baseline, without interstep correction. The affinity was measured applying a 1:1 global fitting model on the full association and dissociation steps. The binding affinity (KD) of the bispecific antibodies of the invention to recombinant human CD47 was determined by the same experimental procedure.

[3] = molecular target: T2, recombinant human CEACAM5 Extra …; assay: BLI (Octet), from Table 2
Experimental: as §2
as §1, with “1.7.” for “1.7. A standard acquisition rate was applied (5.0 Hz, averaging by 20). Curves were processed with a double reference subtraction, a Y alignment on the baseline and an interstep correction. The affinity was measured applying a 1:1 global fitting model on the full association step and the first 5 seconds of the dissociation step.”

[4] = molecular target: T1, his-tagged recombinant huCEACAM3 (R&D …); assay: BLI (Octet), from Table 2
Experimental: as §2
as §1, with “1.7.” for “1.7. A standard acquisition rate was applied (5.0 Hz, averaging by 20). Curves were processed with a double reference subtraction, a Y alignment on the baseline and an interstep correction. The affinity was measured applying a 1:1 global fitting model on the full association step and the first 5 seconds of the dissociation step.”

Row | Binder | Kd [1] [nM] | Kd [2] [nM] | fold higher binding affinity (KD) compared to K2AC22 [3] [fold] | fold higher binding affinity (KD) compared to K2AC22 [4] [fold] | fold higher binding affinity (lower KD) compared to K2AC22 [3] [fold] | fold higher binding affinity (lower KD) compared to K2AC22 [4] [fold]
1 | B1 | 360 | 2.63 | 46 | 28 | – | –
2 | B2 | 10000 | 120 | – | – | – | –
3 | B3 | 700 | 4.8 | – | – | 25 | 14

Reference: patent publication US20220195067A1 (LAMKAP BIO BETA, published 2022)
